# Measurements reported in patent US20250270304A1 (PHENOMIC AI, published 2025).
# Residue numbers refer to the chain shown, from its start.
# B1: AB372 (antibody, IgG1, V domains shown)
# VH: QVTLRESGPALVKPTQTLTLTCTVSGFSLSTSGATVNWIRQPPGKALEWIGYITSSGRTVYNSALKSRLTISKDTSKNQVVLTMTNMDPVDTATYYCTTTKIVGATLRDYWGQGTLVTVSS
# VL: DIVMTQSPDSLAVSLGERATINCKSSQSVLDTSTNRNYLAWYQQKPGQPPKLLIYGASIRAGGVPDRFSGSGSGTDFTLTISSLQAEDVAVYYCQQSYSHPPTFGGGTKVEIK
# B2: AB363 (antibody, IgG1, V domains shown)
# VH: B1 VH
# VL: DIQMTQSPSSVSASVGDRVTITCRASQGISNDLAWYQQKPGKAPKLLIYDVSNRASGVPSRFSGSGSGTDFTLTISSLQPEDFANYYCQQYDNPPSFGGGTKVEIK
# B3: AB357 (antibody, IgG1, V domains shown)
# VH: EVQLVQSGAEVKKPGASVKVSCKASGYTFPSHYISWVRQAPGQGLEWMGGMNPITGHTIYAQKLQGRGTMTTDPSTSTAYMELRSLRSDDTAVYYCARDMRYDILPGRSYYYGMDVWGQGTTVTVSS
# VL: ESALTQPASVSGSPGQSITISCTGTDIRGMSVSWYQQHPGKAPKLMIYEVNQRPSGVSNRFSGSKSGNTASLTISGLQAEDEADYYCAAWDASVAGYVFGGGTKLTVL
# B4: AB338 (antibody, IgG1, V domains shown)
# VH: EVQLVESGGGLVQPGGSLRLSCAASGFTASRNYMSWVRQAPGKGLELVASISGSGDYTYYPDSVKGRFTISRDNAKNSLYLQMNSLRAEDTAVYYCARSPRGPRLLGYYYGMDVWGQGTTVTVSS
# VL: DIVMTQSPLSLPVTPGEPASISCRSSQSLLHSNEKNYLHWYLQKPGQSPQLLIYDASKRASGVPDRFSGSGSGTDFTLKISRVEAEDVGVYYCVQDLHTPFTFGGGTKVEIK
# B5: AB432 (antibody, IgG1, V domains shown)
# VH: QVQLQESGPGLVKPSQTLSLTCTVSGVSLSNVRMGVNWIRQPPGKGLEWIGYVNPSGSTDYNPSLKSRVTMSVDTSKNQFSLKVNSVTAADTAVYYCARAGYPDVWGKGTLVTVSS
# VL: EIVMTQSPATLSLSPGERATLSCRASQSISSSQLAWYQQKPGQAPRLLIYGASTRATGIPARFSGSGSGTDFTLTISSLEPEDFAVYYCQQYNDRPRTFGGGTKVEIK
# B6: AB435 (antibody, IgG1, V domains shown)
# VH: B5 VH with V27Y, S30T, N31D, V32A, M34I, V53I, S58R, L111T
# VL: EIVMTQSPATLSLSPGERATLSCRASQSIGTKLAWYQQKPGQAPRLLIYDASSRVPGIPARFSGSGSGTDFTLTISSLEPEDFAVYYCQQYGSSPPVYSFGGGTKVEIK
# B7: AB465 (antibody, IgG1, V domains shown)
# VH: B5 VH with V27A, L29V, V32A, M34T, V53I, S58R, T59I, L111T
# VL: EIVMTQSPATLSLSPGERATLSCRASQTVSSHLAWYQQKPGQAPRLLIYDVSHRASGIPARFSGSGSGTDFTLTISSLEPEDFAVYYCQQYFTLPTFGGGTKVEIK
# B8: AB433 (antibody, IgG1, V domains shown)
# VH: B5 VH with V27F, S28P, N31T, V32S, V53I, S58A, L111T
# VL: EIVMTQSPATLSLSPGERATLSCRASQSVRTSLAWYQQKPGQAPRLLIYDTSIRAAGIPARFSGSGSGTDFTLTISSLEPEDFAVYYCQQYGNWHFGGGTKVEIK
# B9: AB352 (antibody, IgG1, V domains shown)
# VH: B5 VH with V27F, S28P, N31T, V32S, V53I, S58A, L111T
# VL: EIVMTQSPATLSLSPGERATLSCRASQSVSTHLAWYQQKPGQAPRLLIYDATNRATGIPARFSGSGSGTDFTLTISSLEPEDFAVYYCLQYTNYPWTFGGGTKVEIK
# B10: AB449 (antibody, IgG1, V domains shown)
# VH: B5 VH with V27L, V32A, R33K, N54S, P55T, S56T, S58T, L111T
# VL: DIQMTQSPSSVSASVGDRVTITCRASQGISRDLAWYQQKPGKAPKLLIYAASTLVSGVPSRFSGSGSGTDFTLTISSLQPEDFANYYCQQYVSAPPYTFGGGTKVEIK
# B11: AB346 (antibody, IgG1, V domains shown)
# VH: B5 VH with V27F, S28P, N31T, V32S, V53I, S58A, L111T
# VL: EIVMTQSPATLSLSPGERATLSCRASRSVSSDLAWYQQKPGQAPRLLIYDVSTRATGIPARFSGSGSGTDFTLTISSLEPEDFAVYYCQQYGSSLPPTFGGGTKVEIK
# B12: AB349 (antibody, IgG1, V domains shown)
# VH: QVQLQESGPGLVKPSQTLSLTCTVSGVSLSNARLGVNWIRQPPGKGLEWIGYGSVTGSTDYNPSLKSRVTMSVDTSKNQFSLKVNSVTAADTAVYYCTTSYLVDTAMVTRWGQGTLVTVSS
# VL: EIVMTQSPATLSLSPGERATLSCRASQRIGSDLAWYQQKPGQAPRLLIYSASSRAPGIPARFSGSGSGTDFTLTISSLEPEDFAVYYCSTMAIPFGGGTKVEIK
# Assays:
# Assay in all cases: ELISA, coated antigen, OD450
# [1] = biological target: T1, Inhibin A (Homo sapiens (Human), UniProt P05111 233-366; P08476 311-426)
# T1 sequence 1: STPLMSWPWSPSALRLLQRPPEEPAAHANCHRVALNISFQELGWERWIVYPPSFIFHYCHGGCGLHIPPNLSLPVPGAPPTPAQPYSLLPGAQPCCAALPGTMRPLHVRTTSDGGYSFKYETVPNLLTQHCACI
# T1 sequence 2: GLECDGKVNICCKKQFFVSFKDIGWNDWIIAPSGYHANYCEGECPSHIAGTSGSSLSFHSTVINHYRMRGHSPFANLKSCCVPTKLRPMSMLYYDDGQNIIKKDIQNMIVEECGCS
# Protocol: (§1) Antibodies were re-expressed in 40 mL cultures of Expi293 cells and purified using protein G magnetic sepharose beads (Cytiva, Marlborough, MA) to provide larger quantities for secondary screening. Secondary screening included dose responses in both functional assays described above (SMAD nuclear localization and fibroblast activations assays) as well as in binding assays to the same antigens listed in Table 3. Plates were coated with 25 μL of 3 μg/mL antigen in 384-well Maxisorp plates overnight at 4° C. with agitation. The next day, the samples in the plates were blocked with 70 μL blocking buffer (PBS+1% BSA+0.1% Tween-20) for 2 hours at room temperature. Plates were then washed three times with 100 μL of wash buffer (PBS+0.1% Tween-20). Primary antibodies in Expi293 expression medium were diluted 1:3 in blocking buffer, 25 μL added per well, and the plates were incubated for an hour at room temperature with agitation. Plates were then washed three times and 25 μL of secondary antibody (goat anti-Human IgG, HRP conjugated; Jackson Immunoresearch) diluted 1:5000 in blocking buffer was added for 30 minutes at room temperature. The wells in the plates were washed six times with wash buffer and TMB substrate was added followed by 1 M H3PO4.
# [2] = biological target: T2, Activin B (Homo sapiens (Human), UniProt P09529 293-407)
# T2 construct: also called Mature Activin B; mature Activin B
# T2 sequence: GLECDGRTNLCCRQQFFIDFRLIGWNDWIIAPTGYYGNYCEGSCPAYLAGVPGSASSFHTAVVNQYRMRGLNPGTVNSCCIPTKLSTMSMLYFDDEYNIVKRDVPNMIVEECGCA
# Protocol: as §1
# [3] = biological target: T3, Mature Activin A (human, UniProt P08476 311-426)
# T3 construct: also called active Activin A; INHBA mature
# T3 sequence: T1 sequence 2
# Protocol: as §1
# [4] = biological target: T4, Latent Activin A (human, UniProt P08476 21-426, limits assumed)
# T4 construct: also called INHBA latent
# T4 sequence: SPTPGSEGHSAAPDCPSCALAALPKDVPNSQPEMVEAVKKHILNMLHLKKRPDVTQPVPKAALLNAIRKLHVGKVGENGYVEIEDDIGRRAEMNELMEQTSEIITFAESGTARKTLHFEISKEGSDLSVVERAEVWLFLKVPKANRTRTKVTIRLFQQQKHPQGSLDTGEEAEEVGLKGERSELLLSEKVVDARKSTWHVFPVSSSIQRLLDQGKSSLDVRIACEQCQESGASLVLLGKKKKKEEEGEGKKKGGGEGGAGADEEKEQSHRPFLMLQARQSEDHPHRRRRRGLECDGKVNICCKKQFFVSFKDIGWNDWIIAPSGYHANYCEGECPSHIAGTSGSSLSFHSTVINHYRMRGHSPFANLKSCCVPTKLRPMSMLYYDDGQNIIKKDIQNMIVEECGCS
# Protocol: as §1
# [5] = biological target: T1, Inhibin A; remark: listed apart in the source
binder,measurement,setting,value
B1,fold-change of OD 450 over negative control (BSA),[1],0.43 fold
same,fold-change of OD 450 over negative control (BSA),[2],0.43 fold
same,fold-change of OD 450 over negative control (BSA),[3],7.16 fold
same,fold-change of OD 450 over negative control (BSA),[4],5.64 fold
B2,fold-change of OD 450 over negative control (BSA),[1],0.53 fold
same,fold-change of OD 450 over negative control (BSA),[2],0.63 fold
same,fold-change of OD 450 over negative control (BSA),[3],7.63 fold
same,fold-change of OD 450 over negative control (BSA),[4],4.82 fold
B3,fold-change of OD 450 over negative control (BSA),[1],0.77 fold
same,fold-change of OD 450 over negative control (BSA),[2],2.44 fold
same,fold-change of OD 450 over negative control (BSA),[3],6.99 fold
same,fold-change of OD 450 over negative control (BSA),[4],6.59 fold
B4,fold-change of OD 450 over negative control (BSA),[1],0.9 fold
same,fold-change of OD 450 over negative control (BSA),[2],0.68 fold
same,fold-change of OD 450 over negative control (BSA),[3],1.94 fold
same,fold-change of OD 450 over negative control (BSA),[4],1.44 fold
B5,fold-change of OD 450 over negative control (BSA),[1],0.74 fold
same,fold-change of OD 450 over negative control (BSA),[2],1.72 fold
same,fold-change of OD 450 over negative control (BSA),[3],8.86 fold
same,fold-change of OD 450 over negative control (BSA),[4],10.4 fold
same,binding result,[5],no binding (tested: 1.40-fold over BSA)
B6,fold-change of OD 450 over negative control (BSA),[1],0.74 fold
same,fold-change of OD 450 over negative control (BSA),[2],0.84 fold
same,fold-change of OD 450 over negative control (BSA),[3],8.09 fold
same,fold-change of OD 450 over negative control (BSA),[4],6.66 fold
B7,fold-change of OD 450 over negative control (BSA),[1],0.46 fold
same,fold-change of OD 450 over negative control (BSA),[2],0.87 fold
same,fold-change of OD 450 over negative control (BSA),[3],6.84 fold
same,fold-change of OD 450 over negative control (BSA),[4],5.82 fold
B8,fold-change of OD 450 over negative control (BSA),[1],0.72 fold
same,fold-change of OD 450 over negative control (BSA),[2],2.5 fold
same,fold-change of OD 450 over negative control (BSA),[3],9.41 fold
same,fold-change of OD 450 over negative control (BSA),[4],10.5 fold
B9,fold-change of OD 450 over negative control (BSA),[1],0.61 fold
same,fold-change of OD 450 over negative control (BSA),[2],2.03 fold
same,fold-change of OD 450 over negative control (BSA),[3],16.2 fold
same,fold-change of OD 450 over negative control (BSA),[4],15.2 fold
same,binding result,[5],no binding (tested: 1.40-fold over BSA)
B10,fold-change of OD 450 over negative control (BSA),[1],0.65 fold
same,fold-change of OD 450 over negative control (BSA),[2],0.76 fold
same,fold-change of OD 450 over negative control (BSA),[3],6.63 fold
same,fold-change of OD 450 over negative control (BSA),[4],4.95 fold
B11,fold-change of OD 450 over negative control (BSA),[1],0.58 fold
same,fold-change of OD 450 over negative control (BSA),[2],2.46 fold
same,fold-change of OD 450 over negative control (BSA),[3],14 fold
same,fold-change of OD 450 over negative control (BSA),[4],13.8 fold
B12,fold-change of OD 450 over negative control (BSA),[1],0.22 fold
same,fold-change of OD 450 over negative control (BSA),[2],0.27 fold
same,fold-change of OD 450 over negative control (BSA),[3],5.14 fold
same,fold-change of OD 450 over negative control (BSA),[4],4.34 fold
